Source: US20190167721A1 (FOURTH MILITARY MEDICAL UNIVERSITY XI AN, published 2019)

T1: glycosylated CEA (human, UniProt P06731 35-685, glycosylated (sites and glycans not stated))
T1 construct: whole, on cells; also called glycosylated CEA antigen; MG7
T1 sequence (looked up): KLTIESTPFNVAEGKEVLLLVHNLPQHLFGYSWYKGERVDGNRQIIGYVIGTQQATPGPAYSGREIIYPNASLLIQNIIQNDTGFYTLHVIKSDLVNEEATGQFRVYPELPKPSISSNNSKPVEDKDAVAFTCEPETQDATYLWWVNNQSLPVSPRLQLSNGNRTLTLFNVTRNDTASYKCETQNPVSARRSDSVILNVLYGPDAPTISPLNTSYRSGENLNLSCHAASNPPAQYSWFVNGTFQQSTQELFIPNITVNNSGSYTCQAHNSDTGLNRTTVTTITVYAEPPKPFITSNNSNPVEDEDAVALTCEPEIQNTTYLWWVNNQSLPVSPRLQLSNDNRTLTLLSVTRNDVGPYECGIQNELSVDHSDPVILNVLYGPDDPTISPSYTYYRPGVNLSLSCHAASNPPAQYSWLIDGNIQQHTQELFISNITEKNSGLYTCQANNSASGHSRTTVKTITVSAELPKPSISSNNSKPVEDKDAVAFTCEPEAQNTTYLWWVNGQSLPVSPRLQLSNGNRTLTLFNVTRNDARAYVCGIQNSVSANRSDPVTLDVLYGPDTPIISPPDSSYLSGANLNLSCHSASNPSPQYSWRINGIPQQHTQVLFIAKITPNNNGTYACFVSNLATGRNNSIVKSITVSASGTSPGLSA

T2: CEA overexpressed on SW620-CEA cells (CEACAM5, non-glycosylated state) (UniProt P06731 35-685)
T2 construct: whole, on cells; also called CEACAMS; CEA antigens with a lower degree of glycosylation
T2 sequence (looked up): T1 sequence (looked up)

B1: FM2 (scFv, V domains shown)
VH: DVKLVESGGGLVKPGGSLKLSCAASGFTFSRYTMSWVRQTPEKRLEWVATISNSGSYTYYRDSVKGRFTISRDNAKNTLYLQMSSLKSEDTAMYYCTRGSPWGQGTLVTVSA
VL: DIQMTQSPDSLSASVGETVTITCGASENIYGALNWYQRKQGKSPQLLIYGATKLADGMSSRFSGSGSNRQYSLKISSLHPDDVATYYCQNVLSKPYAFGGGTKLEIK
notes: also called antibody FM2; FM2 single-chain antibody
B2: FM4 (scFv, V domains shown)
VH: EVKLVESGGGLVQPGGSLRLSCSISGFTFTDYYMNWVRQSPGKALEWLGFIRNKVNGDTTEYSASVKGRFTISRDISQSILYLQMNTLRTEDSATYYCARDKGIAYYFDYWGQGTTLTVSS
VL: QIVLSQSPAILFASPGEKVTMTCRASSSVSYIHWYQQKPGSSPKPWIHGTSNLASGVPARFSGSGSGTSYSLTISRMEAEDAATYYCQQWSSNLSTFGGGTKLEIK
notes: also called antibody FM4; FM4 single-chain antibody
B3: FM5 (scFv, V domains shown)
VH: QVQLKESGPGLVAPSQNLSITCTVSGFSLTSYAINWVRQPPGKGLEWLGIIWTGGGTNYNSALKSRLSISKDNSKSQVFLKMNSLQTDDTARYYCASGVYYFDYWGLGTTLTVSS
VL: DIVMTQSHKFMSTSVGDRVSITCKASQDVTTAVAWYQQKPGQSPKVLIFWASTRHTGVPDRFTGSGSGTDYTLTISSVQAEDLALYYCQQYYRTPRTFGGGTKLEIK
notes: also called antibody FM5; FM5 single-chain antibody

How the values were obtained:
[1] = target: T1, glycosylated CEA; assay: flow cytometry on CRYPT cells, goat anti-mouse IgG-APC, logistic fit of MFI
Method: (§1) The antibodies FM2, FM4, FM5, and FM6 were diluted with PBS buffer containing 1% BSA, and incubated with SW620-CEA or CRYPT cells (final concentrations: 50 μg/ml, 5 μg/ml, 0.5 μg/ml, 0.05 μg/ml, 0.005 μg/ml, 0.0005 μg/ml) for 1 hour at room temperature; the cells were washed twice with PBS buffer containing 1% BSA, and then incubated with Goat Anti Mouse IgG-APC for 1 hour; the cells were washed twice with PBS buffer containing 1% BSA and resuspended in PBS buffer; the APC fluorescence values of the cells were read using BD Accuri C6 FACS.
(§2) Using the median fluorescence value (MFI) as the ordinate and the antibody concentration (μg/ml) as the abscissa, the S-curve was fitted using a logistic equation to calculate the antibody binding EC50, the results are shown in the following table: […]

[2] = target: T2, CEA overexpressed on SW620-CEA cells …; assay: flow cytometry on SW620-CEA cells, goat anti-mouse IgG-APC, logistic fit of MFI
Method: as §1, §2

[3] = target: T1, glycosylated CEA; assay: ratio of EC50 values from flow cytometry on cells

Binder	EC50 [1]	EC50 [2]	selectivity (glycosylated CEA on CRYPT against non-glycosylated CEA on SW620-CEA) [3]
B1	0.02 mg/L	0.8 mg/L	–
B2	0.51 mg/L	–	> 100 fold
B3	0.04 mg/L	0.2 mg/L	–
